“And” between values parts separate entries of the source, which are not always exact repeats. Equal values may be shown once.
Tests used:
CCR4/EL4 cells [1] = test: antitumor effect of KM 2760 and IFN-α in combination, CCR4/EL4 cells grafted into tail vein of C57BL/6 mice, liver weight ratio; type: in vivo, C57BL/6 mouse
Experimental: CCR4/EL4 cells were suspended in RPMI 1640 medium (manufactured by Gibco BRL) at a concentration of 5×10^5 cells/mL, and 100 μl of the suspension was grafted into the tail vein of C57BL/6 mice (CLEA Japan Inc., male, 8 weeks old). Further, mice were grouped into A to D, and each of the agents A to D were administered to the mice. Incidentally, the day on which the tumor was grafted was defined as Day 0.
B. Group of administering IFN-α alone: 5×10^4 units of IFN-α (Universal type I interferon, manufactured by PBL Biomedical Laboratories) was intravenously administered per mouse once a day for 5 days from Day 1 to Day 5.
The experiment was conducted with group A consisting of 7 mice and groups B, C and D each consisting of 6 mice. […] The weight of all mice was measured on Day 14. After etherization and exsanguination, mice were brought to euthanasia by dislocation of the cervical spine. The liver was extracted, and the weight of the liver was then measured. A ratio of the liver weight to the weight of each individual (hereinafter referred to as a weight ration of a liver) was calculated by percentage.
The antitumor effect was evaluated by comparing the liver weight ratio (average value of six mice) of untreated healthy mice measured simultaneously and the liver weight ratio of each group increased by metastasis of tumor cells.
Further, the residual amount of tumor cells in the liver in each group was calculated as a T/C value using the following formula. T/C=(average values of a weight ration of a liver of each group−average value of a weight ration of a liver of an untreated mouse)/(average value of a weight ration of a liver of a negative control group−average value of a weight ration of a liver of an untreated mouse) (Formula 4)

CCR4/EL4 cells [2] = test: antitumor effect of KM 2760 and G-CSF in combination, CCR4/EL4 cells grafted into ventral skin of C57BL/6 mice; type: in vivo, C57BL/6 mouse
Experimental: CCR4/EL4 cells (WO 01/64754) were suspended, in RPMI 1640 medium (Gibco BRL) at a concentration of 1×10^6 cells/mL, and 100 μL of the suspension was grafted into the right ventral skin of C57BL/6 mice (Nippon Crea, male, 8 weeks old). After, mice were grouped into A to D, each of the agents A to D were administered to each mouse. Incidentally, the day on which the tumor was grafted was defined as Day 0.
B. Group of administering KM 2760 alone: 100 μg of KM2760 was intravenously administered per mouse on Day 0 and Day 4.
C. Group of administering G-CSF alone: 10 μg of G-CSF (Neuup Injection 100, manufactured by Kyowa Hakko Kogyo Co., Ltd.) was subcutaneously administered per mouse once a day for 10 days from 4 days before the tumor grafting (hereinafter referred to as Day-4) to Day 5.
The experiment was conducted with group A consisting of 10 mice and groups B, C and D each consisting of 7 mice. […] Each of the diluent was administered at 100 μL. A diameter of a tumor was measured with calipers chronologically from Day 0 of each group. A tumor volume was calculated using formula 2 in Example 2.
Since the tumor death of the mouse was started in group A from Day 17 on, the evaluation of the tumor volume was finished on Day 14.
The antitumor effect (T/C value) in each group was evaluated by calculation using the following formula 3 for comparison between the average value of the tumor volume in group A and the average values of the tumor volume in each group on the final evaluation day (Day 14). (T/C value)=(average value of tumor volume in each group on Day 14)/average value of tumor volume in group A on Day 14) (Formula 3)

CCR4/EL4 cells [3] = system: CCR4/EL4 cells
Experimental: CCR4/EL4 cells (WO 01/64754) were suspended in RPMI 1640 medium (manufactured by Gibco BRL) at a concentration of 1×10^5 cells/mL, and 200 μL of the suspension was grafted into the peritoneal cavity of C57BL/6 mice (CLEA Japan Inc., male, 8 weeks old). After, mice was grouped into A to D, and each of the agents A to D was administered to each mouse. The day on which the tumor was grafted was defined as Day 0.
B. Group of administering M-CSF alone: 100 μg of M-CSF (Leucoprol, manufactured by Kyowa Hakko Kogyo Co., Ltd.) was intraperitoneally administered per mouse twice a day from Day-3 to Day-1 and once a day on Day 0, seven times in total.
The experiment was conducted with groups each consisting of 8 mice. […] The antitumor effect was evaluated by a ratio of average values of the number of survival days of mice in each group to an average value of the number of survival days of mice in the negative control group (hereinafter referred to as a life prolongation ratio).

[4] = KM 2760 50 μg i.p. Day 0, M-CSF 100 μg i.p. seven times

B1: KM 2760: anti-CCR4 human chimeric antibody KM 2760 (FERM BP-7054, WO 01/64754) (antibody, V domains shown)
VH: EVQLVESGGDLMKPGGSLKISCAASGFIFSNYGMSWVRQTPDMRLEWVATISSASTYSYYPDSVKGRFTISRDNAENSLYLQMNSLRSEDTGIYYCGRHSDGNFAFGYWGRGTLVTVSA
VL: DVLMTQTPLSLPVSLGDQASISCRSSRNIVHINGDTYLEWYLQRPGQSPKLLIYKVSNRFSGVPDRFSGSGSGTDFTLKISRVEAEDLGVYYCFQGSLLPWTFGGGTRLEIRR
Q: How did the “T/C value (residual amount of tumor cells in the liver, from liver weight ratio)” value (CCR4/EL4 cells [1]; Day 14, KM 2760 0.5 μg per mouse i.v. Day 1 and Day 5, IFN-α 5×10^4 units per mouse i.v. Day 1 to Day 5) turn out when B1 was run?
A: Its value is 0.52.

Q: What about the “antitumor effect compared to untreated group A (liver weight ratio)” value (CCR4/EL4 cells [1]; FIG. 7, Day 14) of the same molecule?
A: Its value is “low”.

Q: What about the “T/C value (average tumor volume of group / group A)” value (CCR4/EL4 cells [2]; Day 14, KM 2760 100 μg per mouse i.v. Day 0 and Day 4, G-CSF 10 μg per mouse s.c. once a day Day-4 to Day 5) of the same molecule?
A: The value was 0.48.

Q: What about the “antitumor effect compared to untreated group A (tumor volume)” value (CCR4/EL4 cells [2]; FIG. 6, up to Day 14) of the same molecule?
A: Its value is “low”.

Q: And the “Number of survival days (each mouse)” value (CCR4/EL4 cells [3]; 8 mice per group, KM 2760 50 μg per mouse i.p. Day 0, M-CSF 100 μg per mouse i.p. seven times Day-3 to Day 0, observation to Day 50)?
A: Its value is 19 days and 21 days (3×) and 22 days and 24 days and 26 days and 27 days.

Q: And the “Average number of survival days” value (CCR4/EL4 cells [3]; [4])?
A: The value was 22.9 days.

Q: And the “Life prolongation ratio (average survival days of group / negative control group)” value (CCR4/EL4 cells [3]; [4])?
A: The value was 1.19.

Q: What about the “antitumor effect in comparison with untreated Group A (survival)” value (CCR4/EL4 cells [3]; Table 7) of the same molecule?
A: Its value is “low”.
